Measured values as given in patent US20240307562A1 (ONCOONE RESEARCH AND DEVELOPMENT, published 2024).

Legend:
[1] = molecular target: T1, Recombinant human MIF immobilized on ELISA plates (oxMIF) (human, UniProt P14174 2-115); assay: ELISA on immobilized human MIF (oxMIF), protein L-HRP detection; EC50 of 4-parameter fit taken as KD
T1 construct: also called immobilized MIF; oxidized MIF
Protocol: (§1) Material and Methods: Recombinant human MIF diluted in PBS at 1 μg/ml was immobilized into ELISA plates overnight at 4° C. (transforming MIF to oxMIF according to Thiele et al., 2015). After blocking, serial dilutions of anti-oxMIF antibodies were added to the plates. Finally, bound antibodies were detected using a protein L-HRP conjugate and tetramethylbenzidine (TMB) as substrate. The chromogenic reaction was stopped with 3M H₂SO₄ and OD was measured at 450 nm. Data from different experiments were normalized to the maximal OD of the anti-oxMIF antibody C0008 (=100%) of the respective experiment and EC₅₀ values were determined by 4-parameter fit using GraphPad Prism (and the mean of two experiments is shown).

[2] = molecular target: T1, Recombinant human MIF immobilized on …; assay: ELISA on immobilized human MIF (oxMIF), anti-human IgG (Fc)-HRP detection; EC50 taken as apparent KD
Protocol: Recombinant human MIF diluted in PBS at 1 μg/ml was immobilized into ELISA plates overnight at 4° C. (transforming MIF to oxMIF according to Thiele et al., 2015). After blocking, serial dilutions of anti-oxMIF antibodies with and without DFO* conjugation (DFO* conjugation is described in Example 19) were added to the plates. Finally, bound antibodies were detected using a Goat anti-human IgG (Fc)-HRP conjugate and tetramethylbenzidine (TMB) as substrate. The chromogenic reaction was stopped with 3M H₂SO₄ and OD was measured at 450 nm. If data from different experiments were combined, the data were normalized to the maximal OD of the anti-oxMIF antibody C0008 (=100%) of the respective experiment and EC₅₀ values were determined by 4-parameter fit using GraphPad Prism (and the mean+/−SEM of two experiments is shown).
Results and conclusion: The binding of the newly designed antibodies towards immobilized MIF (oxMIF) was measured over a broad range of concentrations and the resulting binding curves are illustrated in FIG. 19. The anti-oxMIF antibody C0008 was used as reference for oxMIF binding. […] Additionally, DFO* conjugation of the newly designed Fc-silenced antibodies C0115 and C0118 has not changed their affinity (FIG. 19B).

[3] = molecular target: human FcγRIIIA receptor, V158 (high affinity allotype) (human, UniProt P08637 17-254); assay: cell-based or functional assay
[4] = molecular target: T1, Recombinant human MIF immobilized on …; assay: ELISA on immobilized human MIF (oxMIF)
Protocol: as §1
Results and conclusion: The binding of the newly designed antibodies towards immobilized MIF (oxMIF) was measured over a broad range of concentrations and the resulting binding curves are illustrated in FIG. 8. The anti-oxMIF antibody C0008 was used as reference for oxMIF binding.

T1 sequence (P14174 2-115 limits assumed): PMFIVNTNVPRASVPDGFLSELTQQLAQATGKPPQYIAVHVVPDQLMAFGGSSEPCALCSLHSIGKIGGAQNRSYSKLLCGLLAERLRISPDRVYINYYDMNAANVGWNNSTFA
Chain of human FcγRIIIA receptor, V158 (high affinity allotype) (P08637 17-254 F176V): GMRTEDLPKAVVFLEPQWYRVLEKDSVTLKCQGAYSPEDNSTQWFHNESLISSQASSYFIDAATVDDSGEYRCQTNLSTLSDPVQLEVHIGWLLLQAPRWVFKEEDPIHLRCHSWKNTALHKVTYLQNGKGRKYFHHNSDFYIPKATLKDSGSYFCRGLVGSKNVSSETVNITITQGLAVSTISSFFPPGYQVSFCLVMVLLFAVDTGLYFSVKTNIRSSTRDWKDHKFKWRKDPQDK

Row | Binder | Kd [1] | Kd [2] | EC50 (read off the curve), ADCC reporter luminescence [3] | fold reduction in affinity compared to C0076 [4]
1 | C0008 (Imalumab control antibody) (antibody, human IgG1, kappa, V domains shown, also called Bax69) VH: EVQLLESGGGLVQPGGSLRLSCAASGFTFSIYSMNWVRQAPGKGLEWVSSIGSSGGTTYYADSVKGRFTISRDNSKNTLYLQMNSLRAEDTAVYYCAGSQWLYGMDVWGQGTTVTVSS VL: DIQMTQSPSSLSASVGDRVTITCRSSQRIMTYLNWYQQKPGKAPKLLIFVASHSQSGVPSRFRGSGSETDFTLTISGLQPEDSATYYCQQSFWTPLTFGGGTKVEIKR | 0.7 nM | 0.19 nM |  | 
2 | C0090 (antibody, human IgG1, kappa, IgG1, wt Fc; also called parent antibody of C0118) heavy: not shown light: DIQMTQSPSSLSASVGDRVTITCRSSQRILTYLNWYQQKPGKAPKLLIYVGSHSQSGVPSRFRGSGSETDFTLTISGLQSEDSATYYCQQSFFTPLTFGGGTKVEIKRTVAAPSVFIFPPSDEQLKSGTASVVCLLNNFYPREAKVQWKVDNALQSGNSQESVTEQDSKDSTYSLSSTLTLSKADYEKHKVYACEVTHQGLSSPVTKSFNRGEC | 0.5 nM |  | ~3 nM | 
3 | C0076 (antibody, human IgG1, kappa, V domains shown, IgG1, wt Fc) VH: EVQLQESGGGLVQPGGSLRLSCAASGFTFSIYSMNWVRQAPGKGLEWVSSIGSSGGTTYYADSVKGRFTISRDNSKNTLYLQMNSLRAEDTAVYYCAGSQWLYGMDVWGQGTTVTVSS VL: DIQMTQSPSSLSASVGDRVTITCRSSQRIMTYLNWYQQKPGKAPKLLIYVGSHSQSGVPSRFRGSGSETDFTLTISGLQPEDSATYYCQQSFWTPLTFGGGTKVEIKR | 1.1 nM |  |  | 
4 | C0118 (antibody, human IgG1, kappa, L234A L235A, IgG1 with Fc silencing L234A/L235A (EU numbering); also called Fc silenced anti-oxMIF antibody C0118) heavy: not shown light: DIQMTQSPSSLSASVGDRVTITCRSSQRILTYLNWYQQKPGKAPKLLIYVGSHSQSGVPSRFRGSGSETDFTLTISGLQSEDSATYYCQQSFFTPLTFGGGTKVEIKRTVAAPSVFIFPPSDEQLKSGTASVVCLLNNFYPREAKVQWKVDNALQSGNSQESVTEQDSKDSTYSLSSTLTLSKADYEKHKVYACEVTHQGLSSPVTKSFNRGEC |  | 0.26 nM |  | 
5 | C0077 (antibody, human IgG1, kappa, name in Kabat numbering, V domains shown, IgG1, wt Fc) VH: EVQLQESGGGLVQPGGSLRLSCAASGFTFSIYSMNWVRQAPGKGLEWVSSIGSSGGTTYYADSVKGRFTISRDNSKNTLYLQMNSLRAEDTAVYYCAGSQWLYGMDVWGQGTTVTVSS VL: DIQMTQSPSSLSASVGDRVTITCRSSQRIMTYLNWFQQKPGKAPKLLIYVGSHSQSGVPSRFRGSGSETDFTLTISGLQPEDSATYYCQQSFWTPLTFGGGTKVEIKR | 5.2 nM |  |  | 5 fold
6 | C0115 (antibody, human IgG1, kappa, L234A L235A, IgG1 with Fc silencing L234A/L235A (EU numbering); also called Fc silenced anti-oxMIF antibody C0115) heavy: not shown light: DIQMTQSPSSLSASVGDRVTITCRSSQRIMTYLNWYQQKPGKAPKLLIYVGSHSQSGVPSRFRGSGSETDFTLTISGLQPEDSATYYCQQSFFTPLTFGGGTKVEIKRTVAAPSVFIFPPSDEQLKSGTASVVCLLNNFYPREAKVQWKVDNALQSGNSQESVTEQDSKDSTYSLSSTLTLSKADYEKHKVYACEVTHQGLSSPVTKSFNRGEC |  | 0.28 nM |  | 

The remaining binders from weak to strong by Kd [1], led by results:

Row | Kd [1] | Kd [2] | EC50 (read off the curve), ADCC reporter luminescence [3] | fold reduction in affinity compared to C0076 [4] | Binder
7 | 1.6 nM |  |  |  | C0078 (antibody, human IgG1, kappa, IgG1, wt Fc) heavy: not shown light: DIQMTQSPSSLSASVGDRVTITCRSSQRIMTYLNWYQQKPGKAPKLLIYVGSHSQSGVPSRFRGSGSETDFTLTISGLQPEDSATYYCQQSFFTPLTFGGGTKVEIKRTVAAPSVFIFPPSDEQLKSGTASVVCLLNNFYPREAKVQWKVDNALQSGNSQESVTEQDSKDSTYSLSSTLTLSKADYEKHKVYACEVTHQGLSSPVTKSFNRGEC
8 | 1 nM |  |  |  | C0073 (antibody, human IgG1, kappa, IgG1, wt Fc) heavy: not shown light: DIQMTQSPSSLSASVGDRVTITCRSSQRIMTYLNWYQQKPGKAPKLLIYVGSHSQSGVPSRFRGSGSETDFTLTISGLQPEDSATYYCQQSFFTPLTFGGGTKVEIKRTVAAPSVFIFPPSDEQLKSGTASVVCLLNNFYPREAKVQWKVDNALQSGNSQESVTEQDSKDSTYSLSSTLTLSKADYEKHKVYACEVTHQGLSSPVTKSFNRGEC
9 | 0.5 nM |  | ~3 nM |  | C0083 (antibody, human IgG1, kappa, IgG1, wt Fc; also called parent antibody of C0115) heavy: not shown light: DIQMTQSPSSLSASVGDRVTITCRSSQRIMTYLNWYQQKPGKAPKLLIYVGSHSQSGVPSRFRGSGSETDFTLTISGLQPEDSATYYCQQSFFTPLTFGGGTKVEIKRTVAAPSVFIFPPSDEQLKSGTASVVCLLNNFYPREAKVQWKVDNALQSGNSQESVTEQDSKDSTYSLSSTLTLSKADYEKHKVYACEVTHQGLSSPVTKSFNRGEC
